Positions count from the first letter of the chain named. Names may count otherwise.
B1: anti-CD20 human IgG1 L234K/L235S/G236R (antibody)
heavy: QVQLQQPGAELVKPGASVKMSCKASGYTFTSYNMHWVKQTPGRGLEWIGAIYPGNGDTSYNQKFKGKATLTADKSSSTAYMQLSSLTSEDSAVYYCARSTYYGGDWYFNVWGAGTTVTVSSASTKGPSVFPLAPSSKSTSGGTAALGCLVKDYFPEPVTVSWNSGALTSGVHTFPAVLQSSGLYSLSSVVTVPSSSLGTQTYICNVNHKPSNTKVDKKVEPKSCDKTHTCPPCPAPEKSRGPSVFLFPPKPKDTLMISRTPEVTCVVVDVSHEDPEVKFNWYVDGVEVHNAKTKPREEQYNSTYRVVSVLTVLHQDWLNGKEYKCKVSNKALPAPIEKTISKAKGQPREPQVYTLPPSRDELTKNQVSLTCLVKGFYPSDIAVEWESNGQPENNYKTTPPVLDSDGSFFLYSKLTVDKSRWQQGNVFSCSVMHEALHNHYTQKSLSLSPGK
light: QIVLSQSPAILSASPGEKVTMTCRASSSVSYIHWFQQKPGSSPKPWIYATSNLASGVPVRFSGSGSGTSYSLTISRVEAEDAATYYCQQWTSNPPTFGGGTKLEIKRTVAAPSVFIFPPSDEQLKSGTASVVCLLNNFYPREAKVQWKVDNALQSGNSQESVTEQDSKDSTYSLSSTLTLSKADYEKHKVYACEVTHQGLSSPVTKSFNRGEC
notes: also called 2-24; 1-89
B2: anti-CD20 human IgG1 L234G/L235S/G236R (antibody)
heavy: B1 heavy with K238G
light: B1 light
notes: also called 2-19; 1-59
B3: anti-CD20 human IgG1 L234T/L235T/G236R (antibody)
heavy: B1 heavy with K238T, S239T
light: B1 light
notes: also called 2-63; 1-165
B4: anti-CD20 human IgG1 L234R/L235K/G236R (antibody)
heavy: B1 heavy with K238R, S239K
light: B1 light
notes: also called 2-40
B5: anti-CD20 (rituximab) human IgG1 L234A/L235A/K322A (antibody)
heavy: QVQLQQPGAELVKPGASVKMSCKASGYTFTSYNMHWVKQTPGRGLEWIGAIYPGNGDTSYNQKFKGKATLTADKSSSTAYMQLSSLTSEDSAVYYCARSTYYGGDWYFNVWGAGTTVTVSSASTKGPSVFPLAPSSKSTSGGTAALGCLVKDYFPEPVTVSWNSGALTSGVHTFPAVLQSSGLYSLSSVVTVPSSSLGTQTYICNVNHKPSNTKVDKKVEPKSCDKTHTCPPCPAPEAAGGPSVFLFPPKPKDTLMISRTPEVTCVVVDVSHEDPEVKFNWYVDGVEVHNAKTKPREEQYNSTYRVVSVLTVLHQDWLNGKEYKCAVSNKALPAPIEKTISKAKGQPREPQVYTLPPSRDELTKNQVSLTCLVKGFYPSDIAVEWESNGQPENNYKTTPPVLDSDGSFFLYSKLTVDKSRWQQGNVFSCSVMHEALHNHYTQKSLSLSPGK
light: B1 light
notes: EU numbering; also called 2-74; copies: 2 + 2
B6: anti-CD20 (rituximab) human IgG1 L234Q/L235V/G236R (antibody)
heavy: B1 heavy with K238Q, S239V
light: B1 light
notes: EU numbering; copies: 2 + 2
B7: anti-CD20 (rituximab) human IgG1 L234R/L235E/G236R (antibody)
heavy: B1 heavy with K238R, S239E
light: B1 light
notes: EU numbering; also called 2-37; copies: 2 + 2
B8: anti-CD20 (rituximab) human IgG1 L234F/L235E/P331S (antibody)
heavy: B1 heavy with K238F, S239E, R240G, P335S
light: B1 light
notes: EU numbering; also called 2-75; copies: 2 + 2
B9: anti-CD20 (rituximab) human IgG1 L234D/L235K/G236R (antibody)
heavy: B1 heavy with K238D, S239K
light: B1 light
notes: EU numbering; also called 2-7; 1-23; copies: 2 + 2
B10: anti-CD20 (rituximab) human IgG1 L234K/L235R/G236R (antibody)
heavy: B1 heavy with S239R
light: B1 light
notes: EU numbering; also called 2-23; 1-88; copies: 2 + 2
B11: anti-CD20 (rituximab) human IgG1 L234T/L235K/G236R (antibody)
heavy: B1 heavy with K238T, S239K
light: B1 light
notes: EU numbering; also called 2-58; copies: 2 + 2
B12: anti-CD20 (rituximab) human IgG1 L234K/L235V/G236R (antibody)
heavy: B1 heavy with S239V
light: B1 light
notes: EU numbering; also called 2-26; 1-91; copies: 2 + 2
B13: anti-CD20 (rituximab) human IgG1 L234R/L235D/G236R (antibody)
heavy: B1 heavy with K238R, S239D
light: B1 light
notes: EU numbering; copies: 2 + 2
B14: anti-CD20 (rituximab) human IgG1 L234Q/L235T/G236R (antibody)
heavy: B1 heavy with K238Q, S239T
light: B1 light
notes: EU numbering; also called 1-120; copies: 2 + 2
B15: anti-CD20 (rituximab) human IgG1 L234K/L235S/G236R (antibody)
heavy: B1 heavy
light: B1 light
notes: EU numbering; also called 2-24; 1-89; copies: 2 + 2
B16: anti-CD20 (rituximab) human IgG1 L234T/L235R/G236R (antibody)
heavy: B1 heavy with K238T, S239R
light: B1 light
notes: EU numbering; also called 2-61; copies: 2 + 2
B17: anti-CD20 (rituximab) human IgG1 L234S/L235R/G236R (antibody)
heavy: B1 heavy with K238S, S239R
light: B1 light
notes: EU numbering; also called 2-51; copies: 2 + 2
B18: anti-CD20 (rituximab) human IgG1 L234R/L235I/G236R (antibody)
heavy: B1 heavy with K238R, S239I
light: B1 light
notes: EU numbering; also called 2-39; copies: 2 + 2
B19: anti-CD20 (rituximab) human IgG1 L234R/L235K/G236R (antibody)
heavy: B1 heavy with K238R, S239K
light: B1 light
notes: EU numbering; also called 2-40; copies: 2 + 2
B20: anti-CD20 (rituximab) human IgG1 L234R/L235H/G236R (antibody)
heavy: B1 heavy with K238R, S239H
light: B1 light
notes: EU numbering; also called 2-38; copies: 2 + 2
B21: anti-CD20 (rituximab) human IgG1 L234S/L235H/G236R (antibody)
heavy: B1 heavy with K238S, S239H
light: B1 light
notes: EU numbering; also called 2-48; copies: 2 + 2

Target: T1, human FcγRIIIA (F158) (human, UniProt P08637 17-208)
T1 construct: bought; F158 allele
Test: SPR, FcγRIIIA captured; also: test concentration or dose not given here

T1 sequence (P08637 17-208 limits assumed): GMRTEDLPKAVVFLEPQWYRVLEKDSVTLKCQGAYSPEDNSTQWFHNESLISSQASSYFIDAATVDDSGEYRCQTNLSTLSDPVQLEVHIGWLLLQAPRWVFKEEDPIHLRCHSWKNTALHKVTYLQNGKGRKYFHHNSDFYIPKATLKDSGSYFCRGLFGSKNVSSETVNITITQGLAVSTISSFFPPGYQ

| Binder | Corrected response (RU) |
| --- | --- |
| B1 | 7.3 |
| B2 | 5.8 |
| B3 | 17.1 |
| B4 | 4.4 |

Target: T2, human FcRn (R&D Systems Cat. No. 8639-Fc) (human, UniProt P55899 24-297; P61769 21-119)
Test: SPR, FcRn captured; Mean

T2 sequence (P55899 24-297 limits assumed, chain 1 of 2): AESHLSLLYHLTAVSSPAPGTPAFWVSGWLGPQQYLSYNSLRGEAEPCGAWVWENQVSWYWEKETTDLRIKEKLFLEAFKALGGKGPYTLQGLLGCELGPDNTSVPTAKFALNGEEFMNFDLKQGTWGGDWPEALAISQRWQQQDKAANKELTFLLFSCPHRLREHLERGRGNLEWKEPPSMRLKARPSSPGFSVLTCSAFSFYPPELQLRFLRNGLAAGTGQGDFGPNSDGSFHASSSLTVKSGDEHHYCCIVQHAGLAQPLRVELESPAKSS
T2 sequence (P61769 21-119 limits assumed, chain 2 of 2): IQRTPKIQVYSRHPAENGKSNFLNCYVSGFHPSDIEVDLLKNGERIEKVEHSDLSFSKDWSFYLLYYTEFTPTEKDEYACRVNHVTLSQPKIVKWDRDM

| Binder | Corrected and normalised response (% of wild-type reference) |
| --- | --- |
| B5 | 94 % of wild-type reference |
| B6 | 97.1 % of wild-type reference |
| B7 | 98.4 % of wild-type reference |
| B8 | 96.5 % of wild-type reference |
| B9 | 94.3 % of wild-type reference |
| B10 | 100 % of wild-type reference |
| B11 | 100 % of wild-type reference |
| B12 | 101 % of wild-type reference |
| B13 | 95.6 % of wild-type reference |
| B14 | 95.3 % of wild-type reference |
| B15 | 100 % of wild-type reference |

Target: T2, human FcRn (R&D Systems Cat. No. …)
Test: SPR, FcRn captured; Expt 1

| Binder | Corrected and normalised response (% of wild-type reference) |
| --- | --- |
| B5 | 94 % of wild-type reference |
| B6 | 97.3 % of wild-type reference |
| B7 | 99 % of wild-type reference |
| B8 | 96.1 % of wild-type reference |
| B9 | 94.9 % of wild-type reference |
| B10 | 101 % of wild-type reference |
| B11 | 99.2 % of wild-type reference |
| B12 | 101 % of wild-type reference |
| B13 | 95.5 % of wild-type reference |
| B14 | 95.6 % of wild-type reference |
| B15 | 100 % of wild-type reference |

Target: T2, human FcRn (R&D Systems Cat. No. …)
Test: SPR, FcRn captured; Expt 2

| Binder | Corrected and normalised response (% of wild-type reference) |
| --- | --- |
| B5 | 94.7 % of wild-type reference |
| B6 | 96.6 % of wild-type reference |
| B7 | 98.6 % of wild-type reference |
| B8 | 97.1 % of wild-type reference |
| B9 | 93.7 % of wild-type reference |
| B10 | 99.6 % of wild-type reference |
| B11 | 100 % of wild-type reference |
| B12 | 100 % of wild-type reference |
| B13 | 95.4 % of wild-type reference |
| B14 | 95.1 % of wild-type reference |
| B15 | 99.7 % of wild-type reference |

Target: T2, human FcRn (R&D Systems Cat. No. …)
Test: SPR, FcRn captured; Expt 3

| Binder | Corrected and normalised response (% of wild-type reference) |
| --- | --- |
| B5 | 93.3 % of wild-type reference |
| B6 | 97.4 % of wild-type reference |
| B7 | 97.8 % of wild-type reference |
| B8 | 96.3 % of wild-type reference |
| B9 | 94.1 % of wild-type reference |
| B10 | 99.5 % of wild-type reference |
| B11 | 100 % of wild-type reference |
| B12 | 100 % of wild-type reference |
| B13 | 96 % of wild-type reference |
| B14 | 95.2 % of wild-type reference |
| B15 | 100 % of wild-type reference |

Target: T3, Histidine-tagged recombinant human FcγRI (CD64) (human, UniProt P12314 16-288, limits assumed)
T3 construct: bought
Test: SPR, His-FcγRI captured; Expt 1;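 also: SPR at 25 °C on anti-His antibody chip capturing FcγRI, Fc-variant antibodies injected at 100 µg/mL for 1 min, signal near end of injection minus buffer blank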

| Binder | Corrected response (RU) |
| --- | --- |
| B1 | -1.7 |
| B2 | -0.1 |
| B3 | 1.3 |
| B4 | 0 |

Target: T3, Histidine-tagged recombinant human …
Test: SPR, His-FcγRI captured; Expt 2;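 also: biacore T200 SPR at 25 °C, Fc-variant antibodies at 100 µg/mL flowed 1 min over anti-His-captured receptor, signal read near injection end minus third buffer blank; antibody analyte injected at 100 µg/mL for 1 min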

| Binder | Corrected response (RU) |
| --- | --- |
| B1 | 1.1 |
| B2 | 2.7 |
| B4 | 2.4 |

Target: T3, Histidine-tagged recombinant human …
Test: SPR, His-FcγRI captured; Expt 3;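 also: biacore T200 SPR at 25 °C, Fc-variant antibodies at 100 µg/mL flowed 1 min over anti-His-captured FcγRI, signal taken just before injection end minus a buffer blank cycle; antibody analyte injected at 100 µg/mL for 1 min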

| Binder | Corrected response (RU) |
| --- | --- |
| B1 | 4.1 |
| B2 | 3.1 |
| B4 | 3.9 |

Target: T4, Human C1q (Sigma Cat. No. 20476), HRP-labelled (human, UniProt P02745 23-245; P02746 28-253; P02747 29-245)
T4 construct: Coupled to horse-radish peroxidase with Lightning-Link kit; also called HRP-labelled C1q
Test: ELISA, antibody coated, HRP-C1q; Expt 1, buffer alone 0.061

| Binder | Mean Absorbance |
| --- | --- |
| B16 | 0.047 absorbance (450 nm) |
| B6 | 0.032 absorbance (450 nm) |
| B7 | 0.048 absorbance (450 nm) |
| B9 | 0.049 absorbance (450 nm) |
| B10 | 0.059 absorbance (450 nm) |
| B17 | 0.037 absorbance (450 nm) |
| B18 | 0.169 absorbance (450 nm) |
| B11 | 0.126 absorbance (450 nm) |
| B19 | 0.055 absorbance (450 nm) |
| B12 | 0.073 absorbance (450 nm) |
| B20 | 0.062 absorbance (450 nm) |
| B13 | 0.038 absorbance (450 nm) |
| B21 | 0.04 absorbance (450 nm) |

From US20230235013A1 (MABSOLVE, published 2023)
